{
  "source": "patent US20220090138A1",
  "key": {"[1]": {"molecular_target": "… (EBV LMP2A) presented by HLA-A*0201 (human)", "assay": "cell-based or functional assay"}, "[2]": {"molecular_target": "… (HCMV pp65) presented by HLA-A*0201 (human)", "assay": "cell-based or functional assay"}},
  "data": [
    {"substance": "TCR recognizing … presented by A*0201 (PDB #3REV)", "values": [
      {"measurement": "in vitro T cell activation assay (luciferase); targeting cassette design A", "setting": "[1]", "result": 6.1},
      {"measurement": "in vitro T cell activation assay (luciferase); targeting cassette design B", "setting": "[1]", "result": 6.3},
      {"measurement": "in vitro T cell activation assay (luciferase); targeting cassette design C", "setting": "[1]", "result": 7.6},
      {"measurement": "in vitro T cell activation assay (luciferase); targeting cassette design D", "setting": "[1]", "result": 7},
      {"measurement": "in vitro T cell activation assay (luciferase); targeting cassette design E", "setting": "[1]", "result": 5.9},
      {"measurement": "in vitro T cell activation assay (luciferase); targeting cassette design F", "setting": "[1]", "result": 3.7},
      {"measurement": "in vitro T cell activation assay (luciferase); targeting cassette design G", "setting": "[1]", "result": 7.6},
      {"measurement": "in vitro T cell activation assay (luciferase); targeting cassette design H", "setting": "[1]", "result": 5.4},
      {"measurement": "in vitro T cell activation assay (luciferase); targeting cassette design I", "setting": "[1]", "result": 6.2},
      {"measurement": "in vitro T cell activation assay (luciferase); targeting cassette design J", "setting": "[1]", "result": 6.4},
      {"measurement": "induction of luciferase, in vitro T cell activation assay; short cassette AAY", "setting": "[1]", "result": 11.3},
      {"measurement": "luciferase induction, in vitro T cell activation assay; short cassette 9AA (relative to uninfected controls)", "setting": "[1]", "result": 12},
      {"measurement": "luciferase induction, in vitro T cell activation assay; short cassette 17AA (relative to uninfected controls)", "setting": "[1]", "result": 10.3},
      {"measurement": "luciferase induction, in vitro T cell activation assay; short cassette 25AA (relative to uninfected controls)", "setting": "[1]", "result": 14.6},
      {"measurement": "luciferase induction, in vitro T cell activation assay; short cassette AAY (relative to uninfected controls)", "setting": "[1]", "result": 11.3},
      {"measurement": "luciferase induction, in vitro T cell activation assay; short cassette RR (relative to uninfected controls)", "setting": "[1]", "result": 8.5}
    ]},
    {"substance": "TCR recognizing … presented by A*0201 (PDB #5D2N)", "values": [
      {"measurement": "in vitro T cell activation assay (luciferase); targeting cassette design A", "setting": "[2]", "result": 32.5},
      {"measurement": "in vitro T cell activation assay (luciferase); targeting cassette design B", "setting": "[2]", "result": 31.8},
      {"measurement": "in vitro T cell activation assay (luciferase); targeting cassette design C", "setting": "[2]", "result": 29.1},
      {"measurement": "in vitro T cell activation assay (luciferase); targeting cassette design D", "setting": "[2]", "result": 29.1},
      {"measurement": "in vitro T cell activation assay (luciferase); targeting cassette design E", "setting": "[2]", "result": 28.4},
      {"measurement": "in vitro T cell activation assay (luciferase); targeting cassette design F", "setting": "[2]", "result": 20.4},
      {"measurement": "in vitro T cell activation assay (luciferase); targeting cassette design G", "setting": "[2]", "result": 35},
      {"measurement": "in vitro T cell activation assay (luciferase); targeting cassette design H", "setting": "[2]", "result": 30.3},
      {"measurement": "in vitro T cell activation assay (luciferase); targeting cassette design I", "setting": "[2]", "result": 22.5},
      {"measurement": "in vitro T cell activation assay (luciferase); targeting cassette design J", "setting": "[2]", "result": 38.1},
      {"measurement": "induction of luciferase, in vitro T cell activation assay; short cassette AAY", "setting": "[2]", "result": 24.5},
      {"measurement": "luciferase induction, in vitro T cell activation assay; short cassette 9AA (relative to uninfected controls)", "setting": "[2]", "result": 33.6},
      {"measurement": "luciferase induction, in vitro T cell activation assay; short cassette 17AA (relative to uninfected controls)", "setting": "[2]", "result": 42.8},
      {"measurement": "luciferase induction, in vitro T cell activation assay; short cassette 25AA (relative to uninfected controls)", "setting": "[2]", "result": 42.3},
      {"measurement": "luciferase induction, in vitro T cell activation assay; short cassette AAY (relative to uninfected controls)", "setting": "[2]", "result": 24.5},
      {"measurement": "luciferase induction, in vitro T cell activation assay; short cassette DPP (linker designed to disrupt antigen processing) (relative to uninfected controls)", "setting": "[2]", "result": 0.9},
      {"measurement": "luciferase induction, in vitro T cell activation assay; short cassette RR (relative to uninfected controls)", "setting": "[2]", "result": 21.7}
    ]}
  ]
}
